Reference: patent US20250019450A1 (DIAGONAL THERAPEUTICS, published 2025)

T1: human IL-12Rβ2, Acro (BLI analyte) (human, UniProt Q99665 24-622, limits assumed)
T1 sequence (looked up): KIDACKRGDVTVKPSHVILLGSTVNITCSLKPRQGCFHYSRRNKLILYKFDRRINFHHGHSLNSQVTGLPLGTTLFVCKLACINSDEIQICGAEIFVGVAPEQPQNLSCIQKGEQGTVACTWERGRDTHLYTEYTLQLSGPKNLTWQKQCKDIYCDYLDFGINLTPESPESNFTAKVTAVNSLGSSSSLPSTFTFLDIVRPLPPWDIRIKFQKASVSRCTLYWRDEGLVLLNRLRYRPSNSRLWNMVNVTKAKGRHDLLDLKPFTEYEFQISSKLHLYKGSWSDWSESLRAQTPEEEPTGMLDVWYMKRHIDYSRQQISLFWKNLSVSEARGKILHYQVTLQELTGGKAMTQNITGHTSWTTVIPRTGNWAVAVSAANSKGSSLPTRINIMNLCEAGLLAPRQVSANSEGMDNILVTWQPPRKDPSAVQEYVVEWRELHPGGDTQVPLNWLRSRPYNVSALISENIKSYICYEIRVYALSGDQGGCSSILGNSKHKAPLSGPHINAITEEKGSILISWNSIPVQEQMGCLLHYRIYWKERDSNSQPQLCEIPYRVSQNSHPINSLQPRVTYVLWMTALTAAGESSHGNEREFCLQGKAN

T2: cyno IL-12RB2 with C-terminal HA tag, transiently expressed on HEK-293T cells (cyno, UniProt A0A2K5VNI7 24-860)
T2 construct: whole, on cells; also called cyno IL-12Rβ2
T2 sequence: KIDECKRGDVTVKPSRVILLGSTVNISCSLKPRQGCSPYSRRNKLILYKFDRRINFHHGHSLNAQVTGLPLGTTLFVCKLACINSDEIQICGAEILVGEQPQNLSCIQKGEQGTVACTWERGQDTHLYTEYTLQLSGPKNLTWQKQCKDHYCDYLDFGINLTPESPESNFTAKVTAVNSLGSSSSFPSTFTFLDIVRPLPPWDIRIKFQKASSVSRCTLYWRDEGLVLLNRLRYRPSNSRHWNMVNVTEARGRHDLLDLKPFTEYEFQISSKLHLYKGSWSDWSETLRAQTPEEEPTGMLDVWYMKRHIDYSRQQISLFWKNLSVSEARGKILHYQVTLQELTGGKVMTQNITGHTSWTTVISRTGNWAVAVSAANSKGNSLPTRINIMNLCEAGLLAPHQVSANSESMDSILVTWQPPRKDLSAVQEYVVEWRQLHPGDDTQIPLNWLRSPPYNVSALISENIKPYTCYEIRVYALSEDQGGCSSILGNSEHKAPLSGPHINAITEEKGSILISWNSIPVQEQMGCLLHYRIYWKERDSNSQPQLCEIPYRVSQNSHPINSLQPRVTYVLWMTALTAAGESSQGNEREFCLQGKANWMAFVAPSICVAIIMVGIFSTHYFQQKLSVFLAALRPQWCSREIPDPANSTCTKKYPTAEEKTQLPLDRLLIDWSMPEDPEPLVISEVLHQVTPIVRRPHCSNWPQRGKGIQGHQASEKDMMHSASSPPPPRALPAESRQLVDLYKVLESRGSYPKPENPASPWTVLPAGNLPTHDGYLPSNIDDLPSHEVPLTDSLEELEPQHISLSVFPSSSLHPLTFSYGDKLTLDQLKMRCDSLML

T3: human IL-12RB2 with C-terminal HA tag, transiently expressed on HEK-293T cells (human, UniProt Q99665 24-862)
T3 construct: whole, on cells; also called human IL-12Rβ2
T3 sequence (looked up): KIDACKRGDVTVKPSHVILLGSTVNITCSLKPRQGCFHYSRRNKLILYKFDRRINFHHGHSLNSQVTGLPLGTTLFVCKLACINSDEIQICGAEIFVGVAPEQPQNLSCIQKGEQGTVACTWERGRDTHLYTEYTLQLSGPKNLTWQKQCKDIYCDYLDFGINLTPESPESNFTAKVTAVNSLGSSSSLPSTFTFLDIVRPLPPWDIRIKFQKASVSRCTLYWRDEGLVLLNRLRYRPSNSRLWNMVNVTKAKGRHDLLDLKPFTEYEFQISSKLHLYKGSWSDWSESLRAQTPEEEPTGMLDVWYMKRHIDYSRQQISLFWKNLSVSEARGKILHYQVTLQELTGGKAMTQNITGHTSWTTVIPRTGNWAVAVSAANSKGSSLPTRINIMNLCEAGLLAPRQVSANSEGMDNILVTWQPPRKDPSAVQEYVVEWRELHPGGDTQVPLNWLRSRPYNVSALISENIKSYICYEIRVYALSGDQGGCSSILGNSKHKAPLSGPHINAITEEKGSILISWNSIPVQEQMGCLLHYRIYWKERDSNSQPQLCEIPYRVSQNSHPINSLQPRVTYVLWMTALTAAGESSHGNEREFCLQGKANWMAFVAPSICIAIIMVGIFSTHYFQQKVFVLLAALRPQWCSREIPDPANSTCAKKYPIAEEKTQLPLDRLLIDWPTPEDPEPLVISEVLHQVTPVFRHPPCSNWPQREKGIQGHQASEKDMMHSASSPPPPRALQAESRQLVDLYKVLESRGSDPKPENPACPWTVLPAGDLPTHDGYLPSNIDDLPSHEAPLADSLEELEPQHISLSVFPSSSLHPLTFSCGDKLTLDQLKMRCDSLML

T4: human IL-12Rβ2-huFc-his (R&D system), biotinylated (human, UniProt Q99665 24-622, limits assumed, biotinylated)
T4 construct: bought; captured on Neutravidin in the ELISA; also called Bio-huIL-12Rβ2-huFc-His
T4 sequence (looked up): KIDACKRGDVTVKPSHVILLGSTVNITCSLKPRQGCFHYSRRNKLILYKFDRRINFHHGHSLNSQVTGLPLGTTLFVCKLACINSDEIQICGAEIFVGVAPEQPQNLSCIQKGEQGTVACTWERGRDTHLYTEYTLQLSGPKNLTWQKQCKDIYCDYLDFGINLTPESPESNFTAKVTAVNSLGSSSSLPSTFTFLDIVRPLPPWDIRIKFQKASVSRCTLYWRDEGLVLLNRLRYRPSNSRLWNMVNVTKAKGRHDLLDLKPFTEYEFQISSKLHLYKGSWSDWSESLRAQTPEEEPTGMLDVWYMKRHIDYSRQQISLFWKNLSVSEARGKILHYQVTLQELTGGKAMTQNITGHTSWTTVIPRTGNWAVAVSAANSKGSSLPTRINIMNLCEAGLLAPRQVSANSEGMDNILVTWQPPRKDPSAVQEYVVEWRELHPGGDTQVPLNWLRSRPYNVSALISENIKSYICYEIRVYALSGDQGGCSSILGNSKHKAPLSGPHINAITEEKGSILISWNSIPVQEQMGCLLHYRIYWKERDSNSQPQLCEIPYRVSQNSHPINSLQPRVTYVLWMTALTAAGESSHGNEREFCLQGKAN


Legend:
[1] = target: human IL-12 receptor (IL-12Rβ1 and IL-12Rβ2) on HEK-Blue IL-12 cells (human, UniProt P42701 24-662; Q99665 24-862); experiment: cell-based or functional assay
[2] = target: T1, human IL-12Rβ2, Acro (BLI analyte); experiment: BLI (Octet), antibody on AHC tip
[3] = target: human IL-12Rβ1, Acro (BLI analyte) (human, UniProt P42701 24-545); experiment: BLI (Octet), antibody on AHC tip
[4] = target: T2, cyno IL-12RB2 with C-terminal HA tag, …; experiment: FACS, periplasmic extract, HEK-293T
[5] = target: T3, human IL-12RB2 with C-terminal HA tag, …; experiment: FACS, periplasmic extract, HEK-293T
[6] = target: T4, human IL-12Rβ2-huFc-his (R&D system), …; experiment: ELISA, periplasmic extract

Row | Binder | EC50 [1] | Max Absorbance [1] | Kd [2] [nM] | Kd [3] [nM] | FOB [4] [fold] | FOB [5] [fold] | OD450 nm [6]
1 | DGL412 (bispecific antibody, human IgG1, kappa, 85801_05G01A x 13B2) heavy 1: not shown heavy 2: QVQLVESGGGLVRPGGSLRLSCAASGFTFSSNGMHWFRQAPGKGLEWVSSIGSGGTSIYYADSVKGRFTISRDNAKNTLYLQMNSLKSDDTAVYYCSKEVTGATRGQGTQVTVEPKSSDKTHTCPPCPAPEAAGAPSVFLFPPKPKDTLMISRTPEVTCVVVDVSHEDPEVKFNWYVDGVEVHNAKTKPREEQYNSTYRVVSVLTVLHQDWLNGKEYKCKVSNKALPAPIEKTISKAKGQPREPQVCTLPPSRDELTKNQVSLSCAVKGFYPSDIAVEWESNGQPENNYKTTPPVLDSDGSFFLVSKLTVDKSRWQQGNVFSCSVMHEALHNRFTQKSLSLSPG light: DIQMTQSPSSLSASVGDRVTITCRASQGIGNYLAWFQQRPGKAPKSLIYAASSLQSGVPSKFSGSGSGTDFTLTISSLQPADFAIYYCQQYNIYPYTFGPGTRLEIKRTVAAPSVFIFPPSDEQLKSGTASVVCLLNNFYPREAKVQWKVDNALQSGNSQESVTEQDSKDSTYSLSSTLTLSKADYEKHKVYACEVTHQGLSSPVTKSFNRGEC | > 100 nM | 1.28 | 2.21 | 11.3 | – | – | –
2 | DGL551 (bispecific antibody, V domains shown, 195B1 x 185B2) V domain 1: QVQLVESGGGLVQAGGSLRLSCAASGRTFGTYAMGWFRQAPGKERDFVARISNSGAFTHYADSVKGRFTISRDNAKNTVYLHMNSLENGDTAAYYCVATRGTNSAYYTRSTMYEYWGQGTQVTVEP V domain 2: QVQLVESGGGLVQAGGSLRLSCAASGRTFSRYRMGWFRQAPGKEREFVAAITKSGATTYDADSVKGRFTISRDNAKNTLYLQMNSLKPEDTAVYYCAASYHSNWWPKNADEYAYWGQGTQVTVEP | 4.7e-09 M (implied) | 0.59 | 8.29 | 10.6 | – | – | –
3 | DGL426 (bispecific antibody, human IgG1, lambda) heavy 1: not shown heavy 2: QVQLVQSGAEVKKPGASVKVSCKASGYTFIGYYIHWVRQAPGQGLEWMGWINPHSGGTNYAQKFQGRVTMTRDTSISTAYMELSRLRSDDTAIYYCTKEANNWGYAFDIWGQGTMVTVSSASTKGPSVFPLAPSSKSTSGGTAALGCLVKDYFPEPVTVSWNSGALTSGVHTFPAVLQSSGLYSLSSVVTVPSSSLGTQTYICNVNHKPSNTKVDKKVEPKSCDKTHTCPPCPAPEAAGAPSVFLFPPKPKDTLMISRTPEVTCVVVDVSHEDPEVKFNWYVDGVEVHNAKTKPREEQYNSTYRVVSVLTVLHQDWLNGKEYKCKVSNKALPAPIEKTISKAKGQPREPQVCTLPPSRDELTKNQVSLSCAVKGFYPSDIAVEWESNGQPENNYKTTPPVLDSDGSFFLVSKLTVDKSRWQQGNVFSCSVMHEALHNRFTQKSLSLSPG light: not shown | 2.7e-10 M (implied) | 1.24 | 0.321 | 15.9 | – | – | –
4 | VHH85B2 (VHH) VHH: QVQLVESGGGLVQAGGSLRVSCAASGRIPSLNTMAWYRQAPGKQREFVAFITNGGTTNYVDSVEGRFSISRDNTKNAVDLQMNSLKPEDTGVYYCNVQISQYPYNYWGQGTQVTVSS | – | – | – | – | 2.31 | 1.64 | 2.99
5 | VHH93B2 (VHH) VHH: QVQLVESGGGLVQPGGSLRLSCAASGFTFEPYDMSWFRQAPGKGPEWVSAIDKGGGAGATYYADSVKGRFTISRDNAKKTLYLQMKSLKPEDTAVYYCAITAGPYSDSTPRVAYRGEGTQVTVSS | – | – | – | – | 1.35 | – | 0.151
6 | VHH94B2 (VHH) VHH: EVQLVESGGGLVQPGGSLRLSCAASGFTFSSYAMSWVRQAPGKGLEWVSAINSGGDSTSYADSVEGRFTISRDNAKNTLYLQMNSLKPDDTAVYYCAKWSDCSEYGCYDQTTTEGTQVTVSS | – | – | – | – | 3.84 | 3.19 | 0.19
7 | VHH185B2 (VHH) VHH: QVQLVESGGGLVQAGGSLRLSCAASGRTFSRYRMGWFRQAPGKEREFVAAITKSGATTYDADSVKGRFTISRDNAKNTLYLQMNSLKPEDTAVYYCAASYHSNWWPKNADEYAYWGQGTQVTVSS | – | – | – | – | 4.18 | 2.71 | 2.1
8 | VHH190B2 (VHH) VHH: QVQLQESGPGLVKPSQTLSLTCTVSGGSITTNYYYWSWIRQPPGKGLEWMGAIAYSGSTYYSPSLKSRTSISRDTSKNQFTLQLSSVTPEDTAVYYCASGINFYSNYPTLNEYDYWGQGTQVTVSS | – | – | – | – | 3.78 | 2.25 | 0.174
9 | VHH194B2 (VHH) VHH: QLQLVESGGGLVQAGGSLRLSCAASGLTFSGYTVGWFRQAPGKEREFVAAINWSSAYTYSEFVKGRFTISRDNAKNTVYLQMSSLKPEDTAVYYCAARRSRTSWYASTAEAYDYWGQGTQVTVSS | – | – | – | – | 3.06 | 1.68 | 0.602
10 | VHH294B2 (VHH) VHH: QLQLVESGGGLVQAGGSLRLSCAASGLTFSGYTVGWFRQAPGKEREFVAAINWSSAYTYSEFVKGRFTISRDNAKNTVYLQMSSLKPEDTAVYYCAAQRSRTSWYASTAEAYDYWGQGTQVTVSS | – | – | – | – | 3.19 | 1.98 | 2.2
11 | VHH219B2 (VHH) VHH: QVQLEESGGGLVQAGGSLRLSCAASGRTFSSYVVGWFRQAPGKEREFVGRISWSGARTYYADSVEGRFTISRDNAKNTVYLQMNSLKPEDTAVYYCAADLKWEVLLSEHYEYWGQGTQVTVSS | – | – | – | – | 0.99 | – | 0.237
12 | VHH230B2 (VHH) VHH: QVQLVESGGGLVQAGGSLRLSCAASGRTFSSYAMGWFRQAPGKEREFVSAISWSGLSTYYVESVQGRFTISRDNAKNTVYLQMNSLKPEDTAVYYCAASRIYTNYVARSYEYDDWGQGTQVTVSS | – | – | – | – | – | 2.05 | 0.308
13 | VHH356B2 (VHH) VHH: QLQLVESGGGLVQPGGSLRLSCAASGSIFSINAMGWYRQAPGKQRELVAAITSGGSTAYADSVKGRFTISRDNAKNTVYLQMNSLKPEDTAVYYCNADRDPITSWYVRGDYWGQGTQVTVSS | – | – | – | – | – | 1.43 | 2.86
